Data from patent publication US20210347873A1 (SHANGHAI PHARMAEXPLORER, published 2021).
Blank lines part the entries; values can stand above or below the molecule they belong to.

Assays:
[1] = target: biotinylated hBLyS-ECD (human) (UniProt Q9Y275); experiment: ELISA, coated antibody; biotinylated hBLyS-ECD 0.1 ng/mL
[2] = target: biotinylated hBLyS-ECD (human) (UniProt Q9Y275); experiment: ELISA, coated antibody; biotinylated hBLyS-ECD 0.5 ng/mL
[3] = target: biotinylated hBLyS-ECD (human) (UniProt Q9Y275); experiment: ELISA, coated antibody; biotinylated hBLyS-ECD 0.02 ng/mL
[4] = target: biotinylated hBLyS-ECD (human) (UniProt Q9Y275); experiment: ELISA, coated antibody; biotinylated hBLyS-ECD 0.004 ng/mL
[5] = target: biotinylated hBLyS-ECD (human) (UniProt Q9Y275); experiment: ELISA, coated antibody; biotinylated hBLyS-ECD 0.0008 ng/mL
[6] = target: biotinylated hBLyS-ECD (human) (UniProt Q9Y275); experiment: ELISA, coated antibody; biotinylated hBLyS-ECD 0.00016 ng/mL
[7] = target: biotinylated hBLyS-ECD (human) (UniProt Q9Y275); experiment: ELISA, coated antibody; biotinylated hBLyS-ECD 0.000006 ng/mL
[8] = target: biotinylated hBLyS-ECD (human) (UniProt Q9Y275); experiment: ELISA, coated antibody; biotinylated hBLyS-ECD 0.000032 ng/mL
biotinylated hBLyS-ECD [9] = target: T1, biotinylated hBLyS-ECD (human, UniProt Q9Y275 134-285, biotinylated with Biotin-X-X-NHS (molar ratio 7:1), sites not stated); experiment: ELISA, biotinylated hBLyS-ECD captured on streptavidin; antibody 13.3 nM
T1 construct: The hBLyS-ECD of Embodiment 1 after biotinylation (Embodiment 2); also called biotinylated immunogen; BLyS protein; not shown: His tag of the pCPC vector
Description: (§1) Streptavidin was first diluted to a final concentration of 1.0 μg/mL with PBS, and then 50 μL of diluted streptavidin per well was aliquoted into 96-well ELISA plate, which was subsequently sealed with plastic film and incubated at 4° C. overnight. On the next day the plate was washed four times with the plate washing buffer [PBS buffer containing 0.05% (v/v) Tween20] and added with the blocking solution [PBS buffer containing 0.05% (v/v) Tween20 and 1% (w/w) BSA] and blocked for 2 hours at 37° C. The blocking solution was removed, the biotinylated hBLyS-ECD prepared in Embodiment 2 was diluted with PBS to a final concentration of 50 ng/mL and then aliquoted into the 96-well ELISA plate at 50 μL per well and incubated for 1 hour at 37° C. After rinsing the plate four times with the plate washing buffer [PBS buffer containing 0.05% (v/v) Tween20], 100 μl of the purified lead antibody harvested in Embodiment 1 and 2 was pipetted into each well. After incubation for 1 hour at 37° C., the plate was rinsed four times with the plate washing buffer [PBS buffer containing 0.05% (v/v) Tween20]. HRP-labeled (horseradish peroxidase) secondary antibody (purchased from Sigma) was added in and incubated at 37° C. for 1 hour. The plate was then rinsed four times with the plate washing buffer [PBS buffer containing 0.05% (v/v) Tween20]. 100 μL of TMB substrate was aliquoted into each well and after incubation for 5 minutes at room temperature, 100 μL of stop solution (1.0 N HCl) was aliquoted into each well. A₄₅₀ₙₘ values were read via an ELISA plate reader (SpectraMax M5e purchased from Molecular Devices) and the results were shown in FIGS. 5A-5B and Table 10.

biotinylated hBLyS-ECD [10] = target: T1, biotinylated hBLyS-ECD; experiment: ELISA, biotinylated hBLyS-ECD captured on streptavidin; antibody 2.67 nM
Description: as §1

biotinylated hBLyS-ECD [11] = target: T1, biotinylated hBLyS-ECD; experiment: ELISA, biotinylated hBLyS-ECD captured on streptavidin; antibody 66.7 nM
Description: as §1

biotinylated hBLyS-ECD [12] = target: T1, biotinylated hBLyS-ECD; experiment: ELISA, biotinylated hBLyS-ECD captured on streptavidin; antibody 0.107 nM
Description: as §1

biotinylated hBLyS-ECD [13] = target: T1, biotinylated hBLyS-ECD; experiment: ELISA, biotinylated hBLyS-ECD captured on streptavidin; antibody 0.534 nM
Description: as §1

biotinylated hBLyS-ECD [14] = target: T1, biotinylated hBLyS-ECD; experiment: ELISA, biotinylated hBLyS-ECD captured on streptavidin; antibody 0.0213 nM
Description: as §1

biotinylated hBLyS-ECD [15] = target: T1, biotinylated hBLyS-ECD; experiment: ELISA, biotinylated hBLyS-ECD captured on streptavidin; antibody 0.00427 nM
Description: as §1

biotinylated hBLyS-ECD [16] = target: T1, biotinylated hBLyS-ECD; experiment: ELISA, biotinylated hBLyS-ECD captured on streptavidin; antibody 0 nM (blank)
Description: as §1

[17] = target: T2, human BLyS (full length, arginine 132 mutated to histidine) on CHO-K1 cells (human, UniProt Q9Y275 1-285); experiment: flow cytometry (FACS) on CHO-K1 hBLyS cells, Alexa 488 secondary antibody
T2 construct: also called hBLyS; CHO-K1 hBLyS
T2 sequence (Q9Y275 other isoform, or with tags, fused parts or gaps limits assumed, change not shown): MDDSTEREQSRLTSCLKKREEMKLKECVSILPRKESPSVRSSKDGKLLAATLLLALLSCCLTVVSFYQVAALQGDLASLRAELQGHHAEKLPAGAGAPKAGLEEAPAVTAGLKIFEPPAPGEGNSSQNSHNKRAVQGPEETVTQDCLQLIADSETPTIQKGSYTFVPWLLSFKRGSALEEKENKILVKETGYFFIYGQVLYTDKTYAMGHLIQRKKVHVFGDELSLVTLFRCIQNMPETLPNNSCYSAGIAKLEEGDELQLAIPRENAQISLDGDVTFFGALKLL
Description: (§2) The medium was aspirated completely, and the cells were rinsed once with PBS buffer (purchased from Invitrogen) and then treated with cell dispersion solution (TrypLE™ Express Enzyme, purchased from Life technology) and collected. The detailed steps are as follows: the cells were rinsed once with PBS buffer, after counting, the cells were diluted to 2×10⁶ cells/ml with PBS buffer, blocked with 2% (w/w) fetal bovine serum and incubated on ice for 30 minutes. 200 μL of which per well was aliquoted into a 96-well FACS plate and centrifuged at 2000 rpm at 4° C., then each 100 μL of the lead antibodies obtained from Embodiment 1 and 2 were aliquoted into each well and incubated on ice for 1 hour. […] After centrifuged and rinsed 3 times with FACS buffer, cells were suspended with 200 μL of FACS buffer and the results were detected and analyzed by FACS (FACS Calibur, purchased from BD). It was shown in Tables 12-13 that the lead antibody could bind to human BLyS protein on the cell surface and the lead antibody could cross-react with cynomolgus BLyS. The data in the table is MFI, the average fluorescence intensity of the cell population.

[18] = target: T3, cynomolgus BLyS (full length, arginine 132 mutated to histidine) on CHO-K1 cells (cynomolgus, UniProt Q9Y275 1-285 (human entry)); experiment: flow cytometry (FACS) on CHO-K1 cynoBLyS cells, Alexa 488 secondary antibody
T3 construct: also called cyno BLyS; CHO-K1 cynoBLyS
T3 chain: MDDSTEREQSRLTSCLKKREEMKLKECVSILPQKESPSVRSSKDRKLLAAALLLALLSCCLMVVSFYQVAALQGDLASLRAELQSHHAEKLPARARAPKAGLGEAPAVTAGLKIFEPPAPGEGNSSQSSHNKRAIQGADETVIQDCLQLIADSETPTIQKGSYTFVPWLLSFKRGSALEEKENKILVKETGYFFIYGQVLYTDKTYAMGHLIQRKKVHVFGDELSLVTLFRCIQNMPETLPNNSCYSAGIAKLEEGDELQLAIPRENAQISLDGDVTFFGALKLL
Description: as §2

biotinylated hBLyS-ECD [19] = target: T1, biotinylated hBLyS-ECD; experiment: ELISA: biotinylated hBLyS-ECD captured on streptavidin, antibody titrated, HRP secondary antibody [label printed at the top of D00004]
Description: as §1

biotinylated hBLyS-ECD [20] = target: T1, biotinylated hBLyS-ECD; experiment: ELISA: biotinylated hBLyS-ECD captured on streptavidin, antibody titrated, HRP secondary antibody
biotinylated hBLyS-ECD [21] = target: T1, biotinylated hBLyS-ECD; experiment: as above; remark: listed apart in the source
biotinylated hBLyS-ECD [22] = target: T1, biotinylated hBLyS-ECD; experiment: receptor-ligand blocking ELISA: BAFF R coated, biotinylated hBLyS-ECD added with titrated antibody, HRP-avidin; blocked partner: BAFF R

OD450 nm [1]: 3.36 | OD450 nm [2]: 3.39 | OD450 nm [3]: 3.24 | OD450 nm [4]: 3.14 | OD450 nm [5]: 2.01 | OD450 nm [6]: 0.54 | OD450 nm [7]: 0.08 | OD450 nm [8]: 0.19
Molecule: BLyS antibody (purchased from GSK)

OD450 nm (biotinylated hBLyS-ECD [9]): 2.56 | OD450 nm (biotinylated hBLyS-ECD [10]): 2.53 | OD450 nm (biotinylated hBLyS-ECD [11]): 2.72 | OD450 nm (biotinylated hBLyS-ECD [12]): 0.946 | OD450 nm (biotinylated hBLyS-ECD [13]): 2.06 | OD450 nm (biotinylated hBLyS-ECD [14]): 0.291 | OD450 nm (biotinylated hBLyS-ECD [15]): 0.115 | OD450 nm (biotinylated hBLyS-ECD [16]): 0.0564 | EC50 (read off the curve) [17]: ~0.1 nM | EC50 (read off the curve) [18]: ~0.1 nM | EC50 (read off the curve) (biotinylated hBLyS-ECD [19]): ~0.2 nM
B1: 8E7D9C7F5 (antibody, V domains shown)
VH: QVQLQQSGVELARPGASVKLSCKASGYTFTSYGISWVKQRTGQALEWIGEIYPRSGNTYYNEKFKGKATLTADKSSSTAYMELRSLTSEDSAVYFCARSGPITTLVATDYGMDYWGQGTSVTVSS
VL: DIVLTQSPASLAVSLGQRATISCRASKSVSTSSYSYMHWYQQKPGQPPKLLIKFASNLESGVPARFSGSGSGTDFTLNIHPVEEEDAATYYCQHSREFPYTFGGGTKLEIK
notes: Mouse hybridoma antibody purified on Protein G

EC50 (read off the curve) (biotinylated hBLyS-ECD [20]): ~0.05 nM | EC50 (read off the curve) (biotinylated hBLyS-ECD [21]): ~0.1 nM | IC50 (read off the curve) (biotinylated hBLyS-ECD [22]): ~2 nM
B2: c97A3C2H4 (antibody, human IgG1, V domains shown)
VH: EVKLVESGGGLVQPGGSLKLSCAASGFTFSTYTMSWVRQTPEKRLEWVAYISYGGGSTSYPDTVKGRFTISRDNAKNTLYLQMSSLKSEDTAIYYCTRHVTVVENSMDYWGQGTSVTVSS
VL: DILLTQSPDILSVSPGERVSFSCRASQSIGTSIHWYQQRTNGSPRLLIKYVSESFSGTPSRFSGSGSGTAFTLTINSVESEDIADYYCQQTHSWPWTFGGGTKLEIK
notes: also called BLyS chimeric antibody

EC50 (read off the curve) (biotinylated hBLyS-ECD [20]): ~0.07 nM | IC50 (read off the curve) (biotinylated hBLyS-ECD [22]): ~0.08 nM
B3: c111D10D6G3 (antibody, human IgG1, V domains shown)
VH: QVQLQQPGAELVKPGASVKMSCKASGYTFTRHWITWVKQRPGQGLEWIGDIFPGSGSINYNEKFKSEATLTVEKSSSTAYMQLSSLTSEDSAVYYCARGDVDVWGTGTTVTVSS
VL: DIQMTQSPSSLSASLGERVSLTCRASQEIRGYLSWLQQKPNGTIKRLIYAASTLDSGVPKRFSATRSGSDFSLTISSLESEDFADYYCLQYASYPFTFGSGTKLEIK
notes: as for B2
